B1: Insulin receptor substrate 1 (Homo sapiens), P35568 (parent)
chain: MASPPESDGFSDVRKVGYLRKPKSMHKRFFVLRAASEAGGPARLEYYENEKKWRHKSSAPKRSIPLESCFNINKRADSKNKHLVALYTRDEHFAIAADSEAEQDSWYQALLQLHNRAKGHHDGAAALGAGGGGGSCSGSSGLGEAGEDLSYGDVPPGPAFKEVWQVILKPKGLGQTKNLIGIYRLCLTSKTISFVKLNSEAAAVVLQLMNIRRCGHSENFFFIEVGRSAVTGPGEFWMQVDDSVVAQNMHETILEAMRAMSDEFRPRSKSQSSSNCSNPISVPLRRHHLNNPPPSQVGLTRRSRTESITATSPASMVGGKPGSFRVRASSDGEGTMSRPASVDGSPVSPSTNRTHAHRHRGSARLHPPLNHSRSIPMPASRCSPSATSPVSLSSSSTSGHGSTSDCLFPRRSSASVSGSPSDGGFISSDEYGSSPCDFRSSFRSVTPDSLGHTPPARGEEELSNYICMGGKGPSTLTAPNGHYILSRGGNGHRCTPGTGLGTSPALAGDEAASAADLDNRFRKRTHSAGTSPTITHQKTPSQSSVASIEEYTEMMPAYPPGGGSGGRLPGHRHSAFVPTRSYPEEGLEMHPLERRGGHHRPDSSTLHTDDGYMPMSPGVAPVPSGRKGSGDYMPMSPKSVSAPQQIINPIRRHPQRVDPNGYMMMSPSGGCSPDIGGGPSSSSSSSNAVPSGTSYGKLWTNGVGGHHSHVLPHPKPPVESSGGKLLPCTGDYMNMSPVGDSNTSSPSDCYYGPEDPQHKPVLSYYSLPRSFKHTQRPGEPEEGARHQHLRLSTSSGRLLYAATADDSSSSTSSDSLGGGYCGARLEPSLPHPHHQVLQPHLPRKVDTAAQTNSRLARPTRLSLGDPKASTLPRAREQQQQQQPLLHPPEPKSPGEYVNIEFGSDQSGYLSGPVAFHSSPSVRCPSQLQPAPREEETGTEEYMKMDLGPGRRAAWQESTGVEMGRLGPAPPGAASICRPTRAVPSSRGDYMTMQMSCPRQSYVDTSPAAPVSYADMRTGIAAEEVSLPRATMAAASSSSAASASPTGPQGAAELAAHSSLLGGPQGPGGMSAFTRVNLSPNRNQSAKVIRADPQGCRRRHSSETFSSTPSATRVGNTVPFGAGAAVGGGGGSSSSSEDVKRHSSASFENVWLRPGELGGAPKEPAKLCGAAGGLENGLNYIDLDLVKDFKQCPQECTPEPQPPPPPPPHQPLGSGESSSTRRSSEDLSAYASISFQKQPEDRQ

Variants of: B1
Details: with il4ra_human IL4R

Row | effect of a mutation on the interaction | Variant
1 | decreasing interaction | R212Q
2 | disrupting interaction | R212Q;R227Q
3 | decreasing interaction | M257A
4 | decreasing interaction | R227Q
